Laboratory results reported in patent US20070004636.

B1: rat m-calpain (Calpain 2, rat recombinant, E. coli, Calbiochem, Inc.) (protein)
chain: MAGIAMKLAKDREAAEGLGSHERAIKYLNQDYETLRNECLEAGALFQDPSFPALPSSLGFKELGPYSSKTRGIEWKRPTEICADPQFIIGGATRTDICQGALGDCWLLAAIASLTLNEEILARVVPLDQSFQENYAGIFHFQFWQYGEWVEVVVDDRLPTKDGELLFVHSAEGSEFWSALLEKAYAKINGCYEALSGGATTEGFEDFTGGIAEWYELRKPPPNLFKIIQKALEKGSLLGCSIDITSAADSEAVTYQKLVKGHAYSVTGAEEVESSGSLQKLIRIRNPWGQVEWTGKWNDNCPSWNTVDPEVRANLTERQEDGEFWMSFSDFLRHYSRLEICNLTPDTLTCDSYKKWKLTKMDGNWRRGSTAGGCRNYPNTFWMNPQYLIKLEEEDEDDEDGERGCTFLVGLIQKHRRRQRKMGEDMHTIGFGIYEVPEELTGQTNIHLSKNFFLTTRARERSDTFINLREVLNRFKLPPGEYVLVPSTFEPHKNGDFCIRVFSEKKADYQTVDDEIEANIEEIEANEEDIGDGFRRLFAQLAGEDAEISAFELQTILRRVLAKREDIKSDGFSIETCKIMVDMLDEDGSGKLGLKEFYILWTKIQKYQKIYREIDVDRSGTMNSYEMRKALEEAGFKLPCQLHQVIVARFADDELIIDFDNFVRCLVRLEILFKIFKQLDPENTGTIQLDLISWLSFSVL
B2: human µ-calpain extracted from human erythrocytes (Calpain 1, human erythrocytes; Calbiochem, Inc.) (protein)
chain: SEEIITPVYCTGVSAQVQKQRARELGLGRHENAIKYLGQDYEQLRVRCLQSGTLFRDEAFPPVPQSLGYKDLGPNSSKTYGIKWKRPTELLSNPQFIVDGATRTDICQGALGDCWLLAAIASLTLNDTLLHRVVPHGQSFQNGYAGIFHFQLWQFGEWVDVVVDDLLPIKDGKLVFVHSAEGNEFWSALLEKAYAKVNGSYEALSGGSTSEGFEDFTGGVTEWYELRKAPSDLYQIILKALERGSLLGCSIDISSVLDMEAITFKKLVKGHAYSVTGAKQVNYRGQVVSLIRMRNPWGEVEWTGAWSDSSSEWNNVDPYERDQLRVKMEDGEFWMSFRDFMREFTRLEICNLTPDALKSRTIRKWNTTLYEGTWRRGSTAGGCRNYPATFWVNPQFKIRLDETDDPDDYGDRESGCSFVLALMQKHRRRERRFGRDMETIGFAVYEVPPELVGQPAVHLKRDFFLANASRARSEQFINLREVSTRFRLPPGEYVVVPSTFEPNKEGDFVLRFFSEKSAGTVELDDQIQANLPDEQVLSEEEIDENFKALFRQLAGEDMEISVKELRTILNRIISKHKDLRTKGFSLESCRSMVNLMDRDGNGKLGLVEFNILWNRIRNYLSIFRKFDLDKSGSMSAYEMRMAIESAGFKLNKKLYELIITRYSEPDLAVDFDNFVCCLVRLETMFRFFKTLDTDLDGVVTFDLFKWLQLTMFA

What was measured:
[1] = biological target: human insulin promoter factor 1 (IPF-1), His and Xpress-tagged at the N-terminus
Chain of human insulin promoter factor 1 (IPF-1), His and Xpress-tagged at the N-terminus (chain, as listed by the source): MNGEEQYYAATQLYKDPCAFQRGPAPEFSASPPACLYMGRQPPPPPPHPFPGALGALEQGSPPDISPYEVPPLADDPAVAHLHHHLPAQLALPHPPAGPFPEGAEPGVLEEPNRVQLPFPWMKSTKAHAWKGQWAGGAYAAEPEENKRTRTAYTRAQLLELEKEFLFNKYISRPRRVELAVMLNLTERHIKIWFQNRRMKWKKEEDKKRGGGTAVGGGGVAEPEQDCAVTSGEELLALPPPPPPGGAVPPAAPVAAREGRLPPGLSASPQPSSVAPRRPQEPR

[2] = biological target: T1, human hepatocyte nuclear factor 1α (HNF-1α), His and Xpress-tagged at the N-terminus (not fully specified)
T1 chain: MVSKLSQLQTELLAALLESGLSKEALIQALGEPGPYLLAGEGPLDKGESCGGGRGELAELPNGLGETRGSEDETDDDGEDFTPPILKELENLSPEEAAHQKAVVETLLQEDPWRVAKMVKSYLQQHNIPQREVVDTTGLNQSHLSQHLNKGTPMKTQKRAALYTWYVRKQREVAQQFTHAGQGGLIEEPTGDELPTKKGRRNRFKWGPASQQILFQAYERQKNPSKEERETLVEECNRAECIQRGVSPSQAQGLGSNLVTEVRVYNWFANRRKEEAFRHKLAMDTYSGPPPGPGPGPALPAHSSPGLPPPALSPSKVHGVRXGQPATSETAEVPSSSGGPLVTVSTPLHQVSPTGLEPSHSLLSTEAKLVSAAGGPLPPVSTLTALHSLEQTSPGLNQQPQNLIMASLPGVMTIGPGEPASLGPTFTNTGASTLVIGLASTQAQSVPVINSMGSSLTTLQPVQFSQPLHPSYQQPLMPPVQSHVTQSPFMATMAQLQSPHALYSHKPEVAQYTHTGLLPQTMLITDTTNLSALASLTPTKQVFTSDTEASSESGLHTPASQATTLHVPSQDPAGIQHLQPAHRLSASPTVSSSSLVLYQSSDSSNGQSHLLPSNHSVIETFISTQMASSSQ

[3] = biological target: T2, human hepatocyte nuclear factor 4α (HNF-4α), His and Xpress-tagged at the N-terminus
T2 chain: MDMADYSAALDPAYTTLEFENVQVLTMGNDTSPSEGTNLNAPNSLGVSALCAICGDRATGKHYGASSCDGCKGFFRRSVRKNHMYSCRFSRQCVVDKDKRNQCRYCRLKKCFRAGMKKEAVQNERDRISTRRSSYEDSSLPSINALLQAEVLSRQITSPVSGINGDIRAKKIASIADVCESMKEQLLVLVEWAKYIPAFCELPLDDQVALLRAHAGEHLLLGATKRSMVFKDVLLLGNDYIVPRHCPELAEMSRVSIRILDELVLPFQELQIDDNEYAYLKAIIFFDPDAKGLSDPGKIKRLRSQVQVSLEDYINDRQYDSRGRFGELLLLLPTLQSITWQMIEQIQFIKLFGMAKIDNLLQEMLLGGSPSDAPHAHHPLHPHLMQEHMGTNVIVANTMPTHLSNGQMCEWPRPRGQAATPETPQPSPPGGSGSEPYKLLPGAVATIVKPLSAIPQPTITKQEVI

Row | Protein | in vitro protein degradation test, Western blotting with anti-Xpress and anti-IPF-1 antibody [1] | in vitro protein degradation test, Western blotting with anti-Omni/M21 and anti-HNF-1α antibody [2] | in vitro protein degradation test, Western blotting with anti-HNF-4α antibody [3]
1 | B1 | the in vitro degradation of IPF-1 by each of human µ-calpain, rabbit m-calpain and rat m-calpain was observed | the in vitro degradation of HNF-1α by each of human µ-calpain, rabbit m-calpain and rat m-calpain was observed | –
2 | B2 | the in vitro degradation of IPF-1 by each of human µ-calpain, rabbit m-calpain and rat m-calpain was observed | the in vitro degradation of HNF-1α by each of human µ-calpain, rabbit m-calpain and rat m-calpain was observed | the degradation of HNF-4α by human µ-calpain was observed
